Experimental data: patent US20250353883A1 (Novartis, published 2025)

B1: Sso7d construct 4.1A03 (EGFR, Purif. No. 2) (designed binder)
chain: ATVKFTYQGEEKQVDISKIKIVDRYGQYIHFRYDEGGGANGWGWVSEKDAPKELLQMLEKQ
notes: Purified from E. coli on anti-APP columns; It is NGS hit no; 3, at 2.18%; also called Hit NO; not shown: APP tag of the vector
B2: Sso7d construct 4.1A02 (EGFR, Purif. No. 1) (designed binder)
chain: ATVKFTYQGEEKQVDISKIKIVDRYGQWIHFNYDEGGGAYGWGWVSEKDAPKELLQMLEKQ
notes: Purified from E. coli BL21(DE3) on anti-APP columns; It was found 1x on the plate and was not in the NGS Top30
B3: Sso7d construct 4.1H02 (EGFR, Purif. No. 4) (designed binder)
chain: ATVKFTYQGEEKQVDISKIKIVDRYGQWIHFRYDEGGGADGWGWVSEKDAPKELLQMLEKQ
notes: Purified from E. coli on anti-APP columns; not shown: APP tag of the vector
B4: Sso7d construct 4.2A08 (EGFR, Purif. No. 5) (designed binder)
chain: ATVKFTYQGEEKQVDISKIKIVDRYGQNIHFYYDEGGGANGWGWVSEKDAPKELLQMLEKQ
notes: Purified from E. coli on anti-APP columns; It is NGS hit 1, at 4.56%; also called Hit 1 NGS; not shown: APP tag of the vector
B5: Sso7d construct 4.2B11 (EGFR, Purif. No. 6) (designed binder)
chain: ATVKFTYQGEEKQVDISKIKIVDRYGQNIHFNYDEGGGAWGWGWVSEKDAPKELLQMLEKQ
notes: Purified from E. coli on anti-APP columns; It is NGS hit no; 24, at 0.89%; also called Hit No. 24; not shown: APP tag of the vector
B6: Sso7d construct 4.4E10 (EGFR, Purif. No. 7) (designed binder)
chain: ATVKFTYQGEEKQVDISKIKIVDRYGQYIHFYYDEGGGADGWGWVSEKDAPKELLQMLEKQ
notes: as for B3

Target: T1, human EGFR on HKB11 cells stably over-expressing hEGFR (human, UniProt P00533 25-1210)
T1 construct: whole, on cells; The control lines were HKB11 w.t. cells, which express EGFR endogenously, and HKB11 EGFR knockout cells; also called HKB11_EGFR; HKB11-EGFR transfected
Assay: FACS of purified APP-tagged Sso7d on EGFR-overexpressing HKB11 cells versus EGFR knock out cells

Binder | binding result
B1 | binds
B2 | binds
B3 | binds
B4 | binds
B5 | binds
B6 | binds
